In test [1] the target is BG505 SOSIP.664 gp140 trimer (HIV-1). The test is described as follows: negative stain EM.
The target of test [2] is CH505 TF chimeric SOSIP.III trimer (CH505TFchim.6R.SOSIP.664v4.1) (HIV-1 (CH505 gp120 with BG505 gp41, chimera)). The test is described as follows: negative stain EM.
Test [3] has as its target B41 SOSIP.664 gp140 trimer (HIV-1). In words: negative stain EM.
For test [4], the target named is CH505 TF loop D mutant M20 Env (pseudovirus) (HIV-1). The test is described as follows: cell-based or functional assay.
For test [5], the target named is CH505 TF loop D mutant M7 Env (pseudovirus) (HIV-1). In words: cell-based or functional assay.
Test [6] deals with CH505 TF loop D mutant M8 Env (pseudovirus) (HIV-1). In words: cell-based or functional assay.
Test [7] concerns the target CH505 TF loop D mutant M9 Env (pseudovirus) (HIV-1). In words: cell-based or functional assay.
The target of test [8] is CH505 transmitted/founder (TF) gp120 Env (HIV-1). In words: SPR, antibody captured, gp120 injected. Background: Surface plasmon resonance follows binding to a sensor surface in real time, without labels.
The target is the same in test [9]. The test is described as follows: competition ELISA, blocking of sCD4 binding to CH505 TF gp120. (ELISA stands for enzyme-linked immunosorbent assay.)
Test [10] shares this target. The test is described as follows: competition ELISA, blocking of CH106 binding to CH505 TF gp120.
The target is the same in test [11]. In words: competition ELISA, competitor biotinylated CH240.
The target is the same in test [12]. The test is described as follows: competition ELISA, competitor biotinylated CH241.

In the case of CH103 Fab, the stoichiometry (Fabs per trimer) (Fabs per trimer) in test [1] was found to be 3. Besides, in test [2], the binding ratio (CH103 to gp140) (CH103 per gp140) turned out to be 1 and the stoichiometry (Fabs per trimer) (Fabs per trimer) came out at 3.

CH235.9 Fab: the stoichiometry (Fabs per trimer) (Fabs per trimer) in [3] and in [1] was 3 each time.

Take CH235.9 N30T (antibody): the neutralization IC50, TZM-bl pseudovirus assay in test [4] is greater than 44 µg/mL; in [5] it was greater than 44 µg/mL; in test [6], 24.3 µg/mL; in [7], greater than 44 µg/mL. In [6], this substance yielded a fold increase of the neutralization IC50 against CH235.9 of 37 fold.

In [8], “CH103 lineage unmutated common ancestor (UCA) (antibody)” registered a Kd of 227 nM and a kon of 37000 M⁻¹ s⁻¹.

CH235.12 Fab: the stoichiometry (Fabs per trimer) (Fabs per trimer) in [3] and in [1] was 3 throughout.

In test [8], CH241 (antibody) registered a Kd of 0.7 nM and a koff of 0.00033 s⁻¹. This substance displayed an IC50 in test [9] of 1.5 µg/mL. Moreover, in test [10], the IC50 stood at 2.6 µg/mL.

As for CH235.9 (antibody), the neutralization IC50, TZM-bl pseudovirus assay in test [6] was found to be 0.66 µg/mL.

Turning to CH106 (antibody), the IC50 in test [11] was 2.3 µg/mL; in test [12], 14.3 µg/mL.

Turning to CH235 Fab, the values for the stoichiometry (Fabs per trimer) (Fabs per trimer) in test [3] and in test [1] were 2 and 1, respectively.

In general, Kd refers to the constant that tells how readily two partners part at equilibrium. Read a low Kd as tighter binding. Broadly, the kon is the rate constant with which the complex forms. Lower therefore signals slower complex formation. A word on the koff: it is the rate constant with which the complex falls apart. The low end stands for a long-lived complex, the high end for a short-lived complex. What is called IC50 is the point on the concentration scale where inhibition reaches its midpoint. The low end stands for greater potency in that assay, the high end for weaker potency in that assay.

Source of the values: patent publication US10968255.
